Test results as given in article PMC8809517, “Cofactor-independent RNA editing by a synthetic S-type PPR protein”.

T1: GFP-9S library array, motif 4 ND N98C (synthetic construct, N98C)
T1 chain: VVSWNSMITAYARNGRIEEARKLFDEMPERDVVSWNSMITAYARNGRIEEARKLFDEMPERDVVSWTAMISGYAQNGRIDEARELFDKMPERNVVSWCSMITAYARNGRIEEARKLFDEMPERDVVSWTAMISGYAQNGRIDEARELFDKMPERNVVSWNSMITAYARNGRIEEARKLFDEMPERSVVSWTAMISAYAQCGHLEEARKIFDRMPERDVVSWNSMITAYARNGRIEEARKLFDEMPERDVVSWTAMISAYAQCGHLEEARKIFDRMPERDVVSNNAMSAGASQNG

T2: GFP-9S library array, motif 4 ND D124T (synthetic construct, D124T)
T2 chain: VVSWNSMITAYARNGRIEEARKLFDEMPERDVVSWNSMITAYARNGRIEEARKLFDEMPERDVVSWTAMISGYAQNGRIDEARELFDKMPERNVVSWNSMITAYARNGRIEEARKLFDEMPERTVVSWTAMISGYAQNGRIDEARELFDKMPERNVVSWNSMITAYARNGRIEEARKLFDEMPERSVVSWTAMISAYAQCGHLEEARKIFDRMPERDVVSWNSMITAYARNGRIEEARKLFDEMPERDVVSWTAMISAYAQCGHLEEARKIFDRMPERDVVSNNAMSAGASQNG

T3: GFP-9S library array, motif 4 ND N98P;D124H (synthetic construct, N98P;D124H)
T3 chain: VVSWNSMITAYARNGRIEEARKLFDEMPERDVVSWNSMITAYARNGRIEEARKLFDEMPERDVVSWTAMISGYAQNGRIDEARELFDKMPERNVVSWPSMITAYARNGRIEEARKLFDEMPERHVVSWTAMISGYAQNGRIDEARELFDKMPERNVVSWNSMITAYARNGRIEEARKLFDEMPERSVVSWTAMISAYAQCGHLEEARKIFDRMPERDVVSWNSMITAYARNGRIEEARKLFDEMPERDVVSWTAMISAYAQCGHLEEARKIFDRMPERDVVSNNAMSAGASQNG

T4: GFP-9S library array, motif 4 ND N98Y;D124L (synthetic construct, N98Y;D124L)
T4 chain: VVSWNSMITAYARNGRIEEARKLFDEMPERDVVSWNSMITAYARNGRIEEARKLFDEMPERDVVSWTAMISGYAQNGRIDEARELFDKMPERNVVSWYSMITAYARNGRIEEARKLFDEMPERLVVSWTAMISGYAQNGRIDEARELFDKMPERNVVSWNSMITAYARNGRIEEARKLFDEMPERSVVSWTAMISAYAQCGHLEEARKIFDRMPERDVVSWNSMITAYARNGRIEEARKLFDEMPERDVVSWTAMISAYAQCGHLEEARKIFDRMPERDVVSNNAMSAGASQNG

T5: GFP-9S library array, motif 4 ND N98D;D124A (synthetic construct, N98D;D124A)
T5 chain: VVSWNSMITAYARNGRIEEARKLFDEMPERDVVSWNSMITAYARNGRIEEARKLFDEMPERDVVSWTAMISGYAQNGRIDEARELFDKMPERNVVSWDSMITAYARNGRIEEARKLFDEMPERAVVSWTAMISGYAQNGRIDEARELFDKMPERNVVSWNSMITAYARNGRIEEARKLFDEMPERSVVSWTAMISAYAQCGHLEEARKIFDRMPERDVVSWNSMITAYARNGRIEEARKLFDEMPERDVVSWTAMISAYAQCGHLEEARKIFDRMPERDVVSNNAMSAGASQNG


Tests used:
Assay in all cases: high-throughput RNA pulldown from lysate on Ni-NTA beads; HRP: 50 mM Tris pH 8, 150 mM NaCl, 1 mM beta-mercaptoethanol, 50 ug/ml BSA, 3 ug/ml yeast RNA, 0.5% heparin; ITC and FP: Tris pH 8, 200 mM KCl, 5% glycerol; MST: 50 mM Tris pH 8, 200 mM NaCl, 1 mM DTT, BSA, heparin, 0.05% Tween 20
Settings in all cases: tags: N-terminal His-eGFP
[1] = target: T1, GFP-9S library array, motif 4 ND N98C
[2] = target: T2, GFP-9S library array, motif 4 ND D124T
[3] = target: T3, GFP-9S library array, motif 4 ND …
[4] = target: T4, GFP-9S library array, motif 4 ND …
[5] = target: T5, GFP-9S library array, motif 4 ND …

Binder	Kd ([1]; label: 5' IRDye 800CW) [nM]	Kd ([2]; label: 5' IRDye 800CW) [nM]	Kd ([3]; label: 5' IRDye 800CW) [nM]	Kd ([4]; label: 5' IRDye 800CW) [nM]	Kd ([5]; label: 5' IRDye 800CW) [nM]	Kd ([1]; label: 5' Cy5) [nM]	Kd ([2]; label: 5' Cy5) [nM]	Kd ([3]; label: 5' Cy5) [nM]	Kd ([4]; label: 5' Cy5) [nM]	Kd ([5]; label: 5' Cy5) [nM]
AUUAUACGUGA (ssRNA) [IR-rpoA-U]	651	24.6	143	199	174					
AUUACACGUGA (ssRNA) [Cy5-rpoA]						491	8.35	94.4	89.7	103
AUUAGACGUGA (ssRNA) [Cy5-rpoA-G]						620	291	143	74.6	114
AUUAAACGUGA (ssRNA) [IR-rpoA-A]	1290	215	332	162	233					
